Data as given in PMC9608600, “Functional Characterization of Saccharomyces cerevisiae P5C Reductase, the Enzyme at the Converging Point of Proline and Arginine Metabolism” (Microorganisms, 2022).

B1: Saccharomyces cerevisiae P5C reductase (Pro3, ScP5CR) (Saccharomyces cerevisiae S288C) (protein)
chain: MTYTLAILGCGVMGQALLSAIYNAPKAADETAAAFYPSKIITCNHDEPSAQQVTDLVETFDESPNGIKVESTYGHNVSAVEEASVVLLGTKPFLAEEVLNGVKSVIGGKLLISLAAGWTIDQLSQYTSTVCRVMTNTPAKYGYGCAVVSYSADVSKEQKPLVNELISQVGKYVELPEKNMDAATALVGSGPAFVLLMLESLMESGLKLGIPLQESKECAMKVLEGTVKMVEKSGAHPSVLKHQVCTPGGTTIAGLCVMEEKGVKSGIINGVEEAARVASQLGQKKK
notes: native full-length enzyme purified from commercial bakers' yeast; untagged; gene-deduced subunit 30,132 Da; native 320 kDa, homodecamer

Assays:
[1] = target: T1, Saccharomyces cerevisiae P5C reductase (Pro3, ScP5CR) (Saccharomyces cerevisiae, UniProt P32263); assay: NAD(P)H oxidation at […] nm, nonlinear regression; assay type: biochemical
T1 construct: native full-length enzyme purified from commercial bakers' yeast; untagged; gene-deduced subunit 30,132 Da; native 320 kDa, homodecamer
T1 sequence (P32263 1-286): B1 chain

purified protein [2] = substrate: O=C(O)[C@@H]1CCC=N1; assay: purified protein; assay type: biochemical, Saccharomyces cerevisiae; details: 0.5 mM NADH co-substrate, Tris-HCl pH 7.2, 30 °C, DL-P5C used, concentration as L-P5C
purified protein [3] = substrate: NC(=O)C1=CN([C@@H]2O[C@H](COP(=O)(O)OP(=O)(O)OC[C@H]3O[C@@H](n4cnc5c(N)ncnc54)[C@H](O)[C@@H]3O)[C@@H](O)[C@H]2O)C=CC1; assay: purified protein; assay type: biochemical, Saccharomyces cerevisiae; details: 1 mM L-P5C, Tris-HCl pH 7.2, 30 °C, kcat per monomer
purified protein [4] = substrate: NC(=O)C1=CN([C@@H]2O[C@H](COP(=O)(O)OP(=O)(O)OC[C@H]3O[C@@H](n4cnc5c(N)ncnc54)[C@H](OP(=O)(O)O)[C@@H]3O)[C@@H](O)[C@H]2O)C=CC1; assay: purified protein; assay type: biochemical, Saccharomyces cerevisiae; details: 1 mM L-P5C, Tris-HCl pH 7.2, 30 °C, kcat per monomer

Molecule	Ki [1] [mM]	Km (purified protein [2]) [µM]	Km (purified protein [3]) [µM]	Vmax (purified protein [3])	kcat (purified protein [3]) [s⁻¹]	kcat/Km (purified protein [3]) [M⁻¹ s⁻¹]	Km (purified protein [4]) [µM]	Vmax (purified protein [4])	kcat (purified protein [4])	kcat/Km (purified protein [4]) [M⁻¹ s⁻¹]
N=C(N)NCCC[C@H](N)C(=O)O [arginine]	19									
B1		64.3 ± 5.5	84.0 ± 7.1	107.9 ± 3.0 μkat (mg protein)^−1	3314	3.95e+07	133.4 ± 7.3	294.2 ± 5.7 μkat (mg protein)^−1	10,515 s^−1	7.88e+07
